From US20200283521A1 (GRANULAR THERAPEUTICS, published 2020)

Tests used:
Assay in all cases: cell array, transfected fixed HEK293 cells
ANXA6 = target: T1, ANXA6 (human, UniProt P08133)
T1 construct: expressed in transfected HEK293 cells
T1 sequence (looked up): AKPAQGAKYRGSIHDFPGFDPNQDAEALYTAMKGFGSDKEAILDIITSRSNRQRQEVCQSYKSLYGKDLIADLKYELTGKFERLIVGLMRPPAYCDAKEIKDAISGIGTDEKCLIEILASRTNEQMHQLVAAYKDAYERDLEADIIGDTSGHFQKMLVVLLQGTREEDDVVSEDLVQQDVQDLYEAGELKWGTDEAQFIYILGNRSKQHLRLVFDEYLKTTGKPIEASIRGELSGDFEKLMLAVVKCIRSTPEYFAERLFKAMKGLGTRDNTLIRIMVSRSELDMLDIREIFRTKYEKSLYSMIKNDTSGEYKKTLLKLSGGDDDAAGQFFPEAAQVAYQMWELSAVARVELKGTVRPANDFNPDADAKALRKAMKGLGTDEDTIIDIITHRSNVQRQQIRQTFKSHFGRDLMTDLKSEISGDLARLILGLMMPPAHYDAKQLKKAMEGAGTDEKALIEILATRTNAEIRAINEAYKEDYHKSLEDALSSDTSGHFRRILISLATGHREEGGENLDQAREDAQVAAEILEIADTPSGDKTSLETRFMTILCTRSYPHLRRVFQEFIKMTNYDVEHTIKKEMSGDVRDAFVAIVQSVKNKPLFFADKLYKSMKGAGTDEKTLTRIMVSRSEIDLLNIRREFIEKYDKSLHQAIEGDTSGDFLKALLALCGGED
Experimental: (§1) Transfection of all plasmids was confirmed by screening for the co-encoded marker ZS green (FIG. 13A).
(§2) Primary hits (duplicate spots) were identified by analysing fluorescence (AF647 and ZsGreenl) on ImageQuant. Vectors encoding all hits were sequenced to confirm their correct identities. […] Slides were analysed as above.

TGM2 = target: T2, TGM2 (human, UniProt P21980)
T2 construct: expressed in transfected HEK293 cells
T2 sequence (looked up): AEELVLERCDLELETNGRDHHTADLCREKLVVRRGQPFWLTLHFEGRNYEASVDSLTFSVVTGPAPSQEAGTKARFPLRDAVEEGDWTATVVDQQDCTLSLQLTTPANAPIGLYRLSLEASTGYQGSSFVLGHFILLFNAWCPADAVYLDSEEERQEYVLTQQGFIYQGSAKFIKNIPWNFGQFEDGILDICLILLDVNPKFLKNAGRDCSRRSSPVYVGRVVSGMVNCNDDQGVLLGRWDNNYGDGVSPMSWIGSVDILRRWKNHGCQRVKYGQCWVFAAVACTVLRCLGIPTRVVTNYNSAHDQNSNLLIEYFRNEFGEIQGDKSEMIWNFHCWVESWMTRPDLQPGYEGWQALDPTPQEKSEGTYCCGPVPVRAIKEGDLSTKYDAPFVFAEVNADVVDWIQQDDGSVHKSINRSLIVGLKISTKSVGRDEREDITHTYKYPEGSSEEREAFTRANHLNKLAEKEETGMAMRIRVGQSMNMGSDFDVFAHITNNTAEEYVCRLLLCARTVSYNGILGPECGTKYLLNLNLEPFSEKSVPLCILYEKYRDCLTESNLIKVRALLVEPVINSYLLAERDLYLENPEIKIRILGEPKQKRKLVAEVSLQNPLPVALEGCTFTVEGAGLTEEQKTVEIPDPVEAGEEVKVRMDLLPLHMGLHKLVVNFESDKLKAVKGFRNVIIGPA
Experimental: as §1, §2

COL23A1 = target: T3, COL23A1 (human, UniProt Q86Y22)
T3 construct: expressed in transfected HEK293 cells
T3 sequence (Q86Y22 whole entry): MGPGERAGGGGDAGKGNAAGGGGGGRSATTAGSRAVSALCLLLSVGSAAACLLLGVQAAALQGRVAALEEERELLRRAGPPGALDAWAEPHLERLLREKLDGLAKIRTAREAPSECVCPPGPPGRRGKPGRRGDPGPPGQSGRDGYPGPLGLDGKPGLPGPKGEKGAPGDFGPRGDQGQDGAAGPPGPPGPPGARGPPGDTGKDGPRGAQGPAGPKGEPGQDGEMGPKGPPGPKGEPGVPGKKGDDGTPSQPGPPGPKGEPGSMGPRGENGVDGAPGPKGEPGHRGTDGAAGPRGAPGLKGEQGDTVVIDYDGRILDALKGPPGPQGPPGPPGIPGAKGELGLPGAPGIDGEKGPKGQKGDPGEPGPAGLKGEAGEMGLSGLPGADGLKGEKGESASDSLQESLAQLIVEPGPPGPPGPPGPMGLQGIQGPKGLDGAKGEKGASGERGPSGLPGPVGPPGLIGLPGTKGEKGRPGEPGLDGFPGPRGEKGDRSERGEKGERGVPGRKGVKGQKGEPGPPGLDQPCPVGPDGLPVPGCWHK
Experimental: as §1, §2

ZG16B = target: T4, ZG16B (human, UniProt Q96DA0)
T4 construct: expressed in transfected HEK293 cells
T4 sequence (looked up): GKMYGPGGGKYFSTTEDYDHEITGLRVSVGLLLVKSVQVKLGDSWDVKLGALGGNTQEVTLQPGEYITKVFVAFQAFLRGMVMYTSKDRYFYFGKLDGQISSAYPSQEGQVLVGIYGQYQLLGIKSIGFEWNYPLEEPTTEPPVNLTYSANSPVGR
Experimental: as §1, §2

OSM = target: T5, OSM (human, UniProt P13725)
T5 construct: expressed in transfected HEK293 cells
T5 sequence (looked up): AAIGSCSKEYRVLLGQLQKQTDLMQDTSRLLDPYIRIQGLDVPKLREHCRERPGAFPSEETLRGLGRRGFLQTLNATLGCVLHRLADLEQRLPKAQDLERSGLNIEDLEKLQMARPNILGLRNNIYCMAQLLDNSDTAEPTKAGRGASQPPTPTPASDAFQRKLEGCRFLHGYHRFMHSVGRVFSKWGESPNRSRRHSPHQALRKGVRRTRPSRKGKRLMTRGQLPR
Experimental: as §1, §2

EDN2 = target: T6, EDN2 (human, UniProt P20800)
T6 construct: expressed in transfected HEK293 cells
T6 sequence (looked up): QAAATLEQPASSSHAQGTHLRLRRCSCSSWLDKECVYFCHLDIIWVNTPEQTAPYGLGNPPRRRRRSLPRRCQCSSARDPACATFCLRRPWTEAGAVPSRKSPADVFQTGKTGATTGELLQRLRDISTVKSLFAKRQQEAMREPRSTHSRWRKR
Experimental: as §1, §2

PSAPL1 = target: T7, PSAPL1 (human, UniProt Q6NUJ1)
T7 construct: expressed in transfected HEK293 cells
T7 sequence (looked up): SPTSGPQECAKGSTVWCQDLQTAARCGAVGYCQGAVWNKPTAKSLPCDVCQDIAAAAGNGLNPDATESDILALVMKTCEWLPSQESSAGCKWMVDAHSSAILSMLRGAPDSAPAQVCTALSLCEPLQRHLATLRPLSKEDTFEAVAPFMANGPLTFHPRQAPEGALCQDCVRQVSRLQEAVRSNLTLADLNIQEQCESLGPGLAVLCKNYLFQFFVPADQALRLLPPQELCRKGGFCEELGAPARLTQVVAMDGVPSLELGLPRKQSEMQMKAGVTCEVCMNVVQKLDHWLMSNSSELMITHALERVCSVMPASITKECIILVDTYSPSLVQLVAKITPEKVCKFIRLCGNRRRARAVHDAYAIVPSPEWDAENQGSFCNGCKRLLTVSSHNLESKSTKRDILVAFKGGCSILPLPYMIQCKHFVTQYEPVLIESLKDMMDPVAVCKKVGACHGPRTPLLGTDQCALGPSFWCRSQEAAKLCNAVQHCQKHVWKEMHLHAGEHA
Experimental: as §1, §2

- binding result (ANXA6): no binding (tested: 2 µg/ml)
- binding result (TGM2): no binding (tested: 2 µg/ml)
- binding result (COL23A1): no binding (tested: 2 µg/ml)
- binding result (ZG16B): no binding (tested: 2 µg/ml)
- binding result (OSM): no binding (tested: 2 µg/ml)
- binding result (EDN2): no binding (tested: 2 µg/ml)
- binding result (PSAPL1): no binding (tested: 2 µg/ml)
B1: MH1, human IgG1 (antibody, V domains shown)
VH: QVQLVQSGAEVKKPGASVKVSCKASGYTFTDYYMNWVRQAPGQGLEWMGRIYPGSGNTYYAQKFQGRVTMTRDTSTSTVYMELSSLRSEDTAVYYCARGVYYYDYWGQGTLVTVSS
VL: DIQMTQSPSSLSASVGDRVTITCRASQGIRTNLAWFQQKPGKAPKSLIYAASSLQSGVPSRFSGSGSGTDFTLTISSLQPEDFATYYCQQYNSYPRTFGGGTKVEIK
notes: IgG1; also called IgG1-MH1
